B1: HDV Ribozyme (parent)
chain: GGCCGGCAUGGUCCCAGCCUCCUCGCUGGCGCCGGCUGGGCAACAUUCCGAGGGGACCGUCCCCUCGGUAAUGGCGAAUGGGACCCA

Variants of: B1
Experiment: self-cleavage, relative activity (ratio to wild type); higher = more cleavage; co-transcriptional

Going from G50U G81U to G50U G81A, the self-cleavage rises from 0.341 to 0.609.

Going from G50U G81C to G52A G53C, the self-cleavage rises from 0.479 to 0.743.

Compared with G52A A83U, G52A A83G is higher in self-cleavage: 0.475 for the first, 0.85 for the second.

Going from A51G G68U to G50C G67C, the self-cleavage falls from 0.831 to 0.399.

First: G50C G67U
Second: G50C G67A
The self-cleavage of the first is higher: 0.795 for the first, 0.565 for the second.

First: G52A C85U
Second: G52A C85A
The self-cleavage of the first is lower: 0.923 for the first, 1.03 for the second.

First: A51G C64A
Second: G50A U72C
The self-cleavage of the first is higher: 0.47 for the first, 0.45 for the second.

Going from A51G C75A to A51G C75G, the self-cleavage falls from 0.17 to 0.128.

First: A51G C85A
Second: G50U C62U
The self-cleavage of the first is lower: 0.673 for the first, 0.95 for the second.

First: G50U C62A
Second: G50U C62G
The self-cleavage of the first is higher: 0.602 for the first, 0.344 for the second.

First: G52A G73C
Second: G52A G73A
The self-cleavage of the first is lower: 0.337 for the first, 0.602 for the second.

Compared with G50U C61G, G50U C61U is lower in self-cleavage: 0.67 for the first, 0.59 for the second.

Compared with G50U C61A, G50U G68A is lower in self-cleavage: 0.986 for the first, 0.694 for the second.

First: G50U G68C
Second: A51G A56G
The self-cleavage of the first is lower: 0.465 for the first, 1.08 for the second.

Going from A51G G73C to A51G G73U, the self-cleavage falls from 0.575 to 0.397.

First: A51G G73A
Second: G50U G52U
The self-cleavage of the first is higher: 0.864 for the first, 0.68 for the second.

Compared with G50U G52A, A51U C66G is higher in self-cleavage: 0.799 for the first, 0.816 for the second.

First: A51U G73U
Second: A51U G73C
The self-cleavage of the first is higher: 0.504 for the first, 0.415 for the second.

Going from A51U G73A to G50U G82C, the self-cleavage falls from 0.607 to 0.435.

First: G52A C86G
Second: G52A C86U
The self-cleavage of the first is higher: 1.04 for the first, 0.816 for the second.

G50C C84U and G50C U79C are the same in self-cleavage: 0.554 for the first, 0.554 for the second.

Compared with G50C U79G, G50C U79A is higher in self-cleavage: 0.723 for the first, 0.739 for the second.

Compared with G50C G52A, G50C G52U is lower in self-cleavage: 0.66 for the first, 0.554 for the second.

Going from G50C G52C to A51C, the self-cleavage rises from 0.554 to 0.972.

Going from A51U to A51G, the self-cleavage falls from 0.981 to 0.948.

Going from A51G G52C to A51U G55U, the self-cleavage rises from 0.789 to 0.989.

First: A51C C63U
Second: G50C G74C
The self-cleavage of the first is higher: 1.05 for the first, 0.196 for the second.

Compared with A51G U79G, A51G U79A is lower in self-cleavage: 0.831 for the first, 0.675 for the second.

Going from G52A A56G to G52A C64U, the self-cleavage rises from 0.801 to 0.992.

Going from G52A A87U to G52A A87C, the self-cleavage rises from 0.897 to 1.13.

First: A51G G54A
Second: A51G G54C
The self-cleavage of the first is lower: 0.831 for the first, 1.37 for the second.

Compared with A51G G54U, G52A U79C is lower in self-cleavage: 1.07 for the first, 0.514 for the second.

Going from G50C C61G to G50C C61U, the self-cleavage rises from 0.578 to 0.749.

First: G50U C64A
Second: G50U C64U
The self-cleavage of the first is lower: 0.468 for the first, 0.901 for the second.

Going from A51U A77U to A51U A77C, the self-cleavage falls from 0.815 to 0.453.

First: A51C A77C
Second: G52A G74A
The self-cleavage of the first is lower: 0.266 for the first, 0.518 for the second.

Compared with G50U C57A, G50U C57U is higher in self-cleavage: 0.911 for the first, 1.17 for the second.

Going from G50U C57G to G50C C63U, the self-cleavage rises from 0.986 to 0.997.

First: G50C C63G
Second: G50C C63A
The self-cleavage of the first is lower: 0.135 for the first, 0.305 for the second.

Compared with A51C C61A, A51U G54C is lower in self-cleavage: 1.05 for the first, 0.982 for the second.

Compared with A51G A83U, A51G A83G is higher in self-cleavage: 0.356 for the first, 0.916 for the second.

Compared with A51U C86U, A51U C86A is higher in self-cleavage: 0.831 for the first, 0.848 for the second.

First: A51U C86G
Second: A51U G80U
The self-cleavage of the first is higher: 1.21 for the first, 0.257 for the second.

Going from A51C G74C to A51C G74U, the self-cleavage rises from 0.196 to 0.383.

Compared with A51C G74A, G50U A77G is higher in self-cleavage: 0.479 for the first, 0.639 for the second.

Compared with G52C A70C, A51G G55A is higher in self-cleavage: 0.85 for the first, 0.972 for the second.

First: G50C C75A
Second: G50C C75U
The self-cleavage of the first is higher: 0.242 for the first, 0.162 for the second.

Compared with G50C C75G, A51G A70C is higher in self-cleavage: 0 for the first, 0.974 for the second.

Compared with A51G A70U, G50U A87G is lower in self-cleavage: 1.22 for the first, 0.927 for the second.

Compared with G50U A87U, A51G A78C is lower in self-cleavage: 0.85 for the first, 0.318 for the second.

First: A51G A78G
Second: A51G A87U
The self-cleavage of the first is lower: 0.674 for the first, 0.952 for the second.

Compared with A51C G55U, A51C G55C is lower in self-cleavage: 0.944 for the first, 0.7 for the second.

Compared with A51C G54A, A51C G54U is lower in self-cleavage: 0.716 for the first, 0.659 for the second.

First: G50U A70C
Second: G50U A70G
The self-cleavage of the first is lower: 0.795 for the first, 0.846 for the second.

Compared with A51U C75U, A51U C75G is higher in self-cleavage: 0.177 for the first, 0.344 for the second.

First: A51U C75A
Second: G52A U72G
The self-cleavage of the first is lower: 0.123 for the first, 0.749 for the second.

Compared with G52A U72C, G52A U72A is lower in self-cleavage: 0.591 for the first, 0.423 for the second.

First: G52A G67A
Second: G52A G67C
The self-cleavage of the first is higher: 0.923 for the first, 0.878 for the second.

Compared with G50U A51G, A51U G82C is lower in self-cleavage: 0.956 for the first, 0.282 for the second.

Going from A51C C75G to A51G C66G, the self-cleavage rises from 0.415 to 0.989.

Compared with A51G C66U, A51G C66A is lower in self-cleavage: 0.89 for the first, 0.889 for the second.

Going from G50C A77C to G50U U79G, the self-cleavage rises from 0.302 to 0.802.

Compared with G50U U79A, G50C A51G is higher in self-cleavage: 0.831 for the first, 1.07 for the second.

Compared with G50C A51U, A51U C61U is higher in self-cleavage: 0.755 for the first, 0.781 for the second.

Going from A51U C61G to A51U C61A, the self-cleavage rises from 0.831 to 0.938.

Compared with A51C A83U, A51C A83G is higher in self-cleavage: 0.609 for the first, 0.673 for the second.

Going from G52A G55C to A51G C84U, the self-cleavage rises from 0.923 to 0.975.

Compared with A51G C84G, A51U C57A is higher in self-cleavage: 0.332 for the first, 0.814 for the second.

Compared with A51U C57U, A51C G68U is lower in self-cleavage: 0.801 for the first, 0.782 for the second.

First: G50C G59C
Second: G50C G59U
The self-cleavage of the first is higher: 1.16 for the first, 0.932 for the second.

Going from A51C G82A to A51C G82C, the self-cleavage rises from 0.298 to 0.534.

First: G52A U69C
Second: G50C A83G
The self-cleavage of the first is higher: 1.21 for the first, 0.491 for the second.

Going from G50C A83U to A51C C66U, the self-cleavage rises from 0.504 to 0.974.

Compared with G50C G76C, G50C G76A is lower in self-cleavage: 1.08 for the first, 0.915 for the second.

Compared with A51G G74U, A51G G74A is lower in self-cleavage: 0.434 for the first, 0.406 for the second.

Compared with A51G C58A, A51G C58U is lower in self-cleavage: 0.98 for the first, 0.95 for the second.

Going from A51U A71U to A51C A56C, the self-cleavage falls from 1.01 to 0.703.

Going from G52A to G52C, the self-cleavage falls from 1.02 to 1.01.

Going from G52A G80U to G52A G80C, the self-cleavage rises from 0.262 to 0.272.

First: G52A G80A
Second: A51C U79G
The self-cleavage of the first is lower: 0.386 for the first, 0.415 for the second.

Going from A51C U79A to G50C C86G, the self-cleavage falls from 0.959 to 0.944.

First: G50C C86U
Second: G50C C86A
The self-cleavage of the first is lower: 0.748 for the first, 0.929 for the second.

First: G50C G80C
Second: G50C G80U
The self-cleavage of the first is lower: 0.0906 for the first, 0.225 for the second.

For A51G G81A, the self-cleavage was 0.285.

Reference: the RNAGym collection of RNA variant scans (doi:10.7554/elife.80360)
